Results taken from PMC12102759 (2025).

B1: AZIN2 peptide 1-16 (Antizyme inhibitor 2), 16-mer library wild type / NSP3 ADRP (ORF1ab Nsp3b ADRP, residues 1023-1192) (parent complex)
chain 1: MAGYLSESDFVMVEEG
chain 2: not shown
B2: PRDM14 peptide 196-211 (PR domain zinc finger protein 14), 16-mer library wild type / NSP3 SUD-M (ORF1ab Nsp3c SUD-M, residues 1356-1493) (parent complex)
chain 1: QFTEEDLHFVLYGVTP
chain 2: LPSIISNEKQEILGTVSWNLREMLAHAEETRKLMPVCVETKAIVSTIQRKYKGIKIQEGVVDYGARFYFYTSKTTVASLINTLNDLNETLVTMPLGYVTHGLNLEEAARYMRSLKVPATVSVSSPDAVTAYNGYLTSS

Variants of: B1
Experiment: bait immobilised on MaxiSorp plates (10 µg), library pre-cleared on GST, 2 h binding at 4 °C, five washes; one round per day, days 1-4; value from days 2 and 3

| Variant | screen value |
| --- | --- |
| chain 1 V11I | 0.195 average fractional NGS count over selection days 2 and 3 (reads of this peptide / all reads for the bait, averaged over … |
| chain 1 V11M | 0.000364 average fractional NGS count over selection days 2 and 3 (reads of this peptide / all reads for the bait, averaged over … |
| chain 1 S8Y | 0.035 average fractional NGS count over selection days 2 and 3 (reads of this peptide / all reads for the bait, averaged over … |
| chain 1 S8T | 0.00377 average fractional NGS count over selection days 2 and 3 (reads of this peptide / all reads for the bait, averaged over … |
| chain 1 S8M | 0.000908 average fractional NGS count over selection days 2 and 3 (reads of this peptide / all reads for the bait, averaged over … |
| chain 1 S8L | 0.000166 average fractional NGS count over selection days 2 and 3 (reads of this peptide / all reads for the bait, averaged over … |
| chain 1 S8H | 6.7e-05 average fractional NGS count over selection days 2 and 3 (reads of this peptide / all reads for the bait, averaged over … |
| chain 1 G16K | 0.000188 average fractional NGS count over selection days 2 and 3 (reads of this peptide / all reads for the bait, averaged over … |
| chain 1 G16H | 0.000328 average fractional NGS count over selection days 2 and 3 (reads of this peptide / all reads for the bait, averaged over … |
| chain 1 G16P | 9.14e-05 average fractional NGS count over selection days 2 and 3 (reads of this peptide / all reads for the bait, averaged over … |
| chain 1 G16N | 0.00027 average fractional NGS count over selection days 2 and 3 (reads of this peptide / all reads for the bait, averaged over … |
| chain 1 G16Q | 0.000216 average fractional NGS count over selection days 2 and 3 (reads of this peptide / all reads for the bait, averaged over … |
| chain 1 G16S | 0.000137 average fractional NGS count over selection days 2 and 3 (reads of this peptide / all reads for the bait, averaged over … |
| chain 1 G16F | 0.000171 average fractional NGS count over selection days 2 and 3 (reads of this peptide / all reads for the bait, averaged over … |
| chain 1 G16D | 0.00105 average fractional NGS count over selection days 2 and 3 (reads of this peptide / all reads for the bait, averaged over … |
| chain 1 G16E | 0.000344 average fractional NGS count over selection days 2 and 3 (reads of this peptide / all reads for the bait, averaged over … |

| Variant | screen value |
| --- | --- |
| chain 1 G16V | 0.000213 average fractional NGS count over selection days 2 and 3 (reads of this peptide / all reads for the bait, averaged over … |
| chain 1 G16L | 0.000127 average fractional NGS count over selection days 2 and 3 (reads of this peptide / all reads for the bait, averaged over … |
| chain 1 G16T | 0.000528 average fractional NGS count over selection days 2 and 3 (reads of this peptide / all reads for the bait, averaged over … |
| chain 1 G16A | 0.00182 average fractional NGS count over selection days 2 and 3 (reads of this peptide / all reads for the bait, averaged over … |
| chain 1 E15N | 0.000739 average fractional NGS count over selection days 2 and 3 (reads of this peptide / all reads for the bait, averaged over … |
| chain 1 E15P | 7.42e-05 average fractional NGS count over selection days 2 and 3 (reads of this peptide / all reads for the bait, averaged over … |
| chain 1 E15T | 0.000718 average fractional NGS count over selection days 2 and 3 (reads of this peptide / all reads for the bait, averaged over … |
| chain 1 E15H | 0.00102 average fractional NGS count over selection days 2 and 3 (reads of this peptide / all reads for the bait, averaged over … |
| chain 1 E15D | 9.82e-05 average fractional NGS count over selection days 2 and 3 (reads of this peptide / all reads for the bait, averaged over … |
| chain 1 E15S | 0.00159 average fractional NGS count over selection days 2 and 3 (reads of this peptide / all reads for the bait, averaged over … |
| chain 1 E14M | 0.000122 average fractional NGS count over selection days 2 and 3 (reads of this peptide / all reads for the bait, averaged over … |
| chain 1 E14R | 0.000473 average fractional NGS count over selection days 2 and 3 (reads of this peptide / all reads for the bait, averaged over … |
| chain 1 E14N | 0.000346 average fractional NGS count over selection days 2 and 3 (reads of this peptide / all reads for the bait, averaged over … |
| chain 1 E14Q | 0.00039 average fractional NGS count over selection days 2 and 3 (reads of this peptide / all reads for the bait, averaged over … |
| chain 1 E14S | 0.000258 average fractional NGS count over selection days 2 and 3 (reads of this peptide / all reads for the bait, averaged over … |
| chain 1 E14P | 0.0011 average fractional NGS count over selection days 2 and 3 (reads of this peptide / all reads for the bait, averaged over … |

Variants of: B2
Experiment: as above

| Variant | screen value |
| --- | --- |
| chain 1 QFSEEDLHFVLYGVTP [chain 1 T3S] | 0.000238 average fractional NGS count over selection days 2 and 3 (reads of this peptide / all reads for the bait, averaged over … |
| chain 1 QFTEEDLHFVLYGITP [chain 1 V14I] | 7.71e-05 average fractional NGS count over selection days 2 and 3 (reads of this peptide / all reads for the bait, averaged over … |
| chain 1 QFTEEDLHFVLYGLTP [chain 1 V14L] | 4.25e-05 average fractional NGS count over selection days 2 and 3 (reads of this peptide / all reads for the bait, averaged over … |
| chain 1 QFTQEDLHFVLYGVTP [chain 1 E4Q] | 4.52e-05 average fractional NGS count over selection days 2 and 3 (reads of this peptide / all reads for the bait, averaged over … |
| chain 1 QFTEEALHFVLYGVTP [chain 1 D6A] | 6.63e-05 average fractional NGS count over selection days 2 and 3 (reads of this peptide / all reads for the bait, averaged over … |
| chain 1 QFTEEVLHFVLYGVTP [chain 1 D6V] | 5.37e-05 average fractional NGS count over selection days 2 and 3 (reads of this peptide / all reads for the bait, averaged over … |
| chain 1 QFTEEELHFVLYGVTP [chain 1 D6E] | 0.0721 average fractional NGS count over selection days 2 and 3 (reads of this peptide / all reads for the bait, averaged over … |
| chain 1 QFTEEGLHFVLYGVTP [chain 1 D6G] | 5.78e-05 average fractional NGS count over selection days 2 and 3 (reads of this peptide / all reads for the bait, averaged over … |
| chain 1 QFTEEDLVFVLYGVTP [chain 1 H8V] | 0.000167 average fractional NGS count over selection days 2 and 3 (reads of this peptide / all reads for the bait, averaged over … |
| chain 1 QFTEEDLMFVLYGVTP [chain 1 H8M] | 0.194 average fractional NGS count over selection days 2 and 3 (reads of this peptide / all reads for the bait, averaged over … |
| chain 1 QFTEEDLIFVLYGVTP [chain 1 H8I] | 8.91e-05 average fractional NGS count over selection days 2 and 3 (reads of this peptide / all reads for the bait, averaged over … |
| chain 1 QFTEEDLTFVLYGVTP [chain 1 H8T] | 0.000106 average fractional NGS count over selection days 2 and 3 (reads of this peptide / all reads for the bait, averaged over … |
| chain 1 QFTEEDLEFVLYGVTP [chain 1 H8E] | 4.27e-05 average fractional NGS count over selection days 2 and 3 (reads of this peptide / all reads for the bait, averaged over … |
| chain 1 QFTEEDLRFVLYGVTP [chain 1 H8R] | 0.0209 average fractional NGS count over selection days 2 and 3 (reads of this peptide / all reads for the bait, averaged over … |
| chain 1 QFTEEDLLFVLYGVTP [chain 1 H8L] | 0.000127 average fractional NGS count over selection days 2 and 3 (reads of this peptide / all reads for the bait, averaged over … |
| chain 1 QFTEEDLNFVLYGVTP [chain 1 H8N] | 0.00229 average fractional NGS count over selection days 2 and 3 (reads of this peptide / all reads for the bait, averaged over … |

| Variant | screen value |
| --- | --- |
| chain 1 QFTEEDLKFVLYGVTP [chain 1 H8K] | 0.000229 average fractional NGS count over selection days 2 and 3 (reads of this peptide / all reads for the bait, averaged over … |
| chain 1 QFTEEDLYFVLYGVTP [chain 1 H8Y] | 5.98e-05 average fractional NGS count over selection days 2 and 3 (reads of this peptide / all reads for the bait, averaged over … |
| chain 1 QFTEEDLAFVLYGVTP [chain 1 H8A] | 0.00113 average fractional NGS count over selection days 2 and 3 (reads of this peptide / all reads for the bait, averaged over … |
| chain 1 QFTEEDLHFVLMGVTP [chain 1 Y12M] | 4.44e-05 average fractional NGS count over selection days 2 and 3 (reads of this peptide / all reads for the bait, averaged over … |
| chain 1 QFTEEDLHFVLEGVTP [chain 1 Y12E] | 0.000104 average fractional NGS count over selection days 2 and 3 (reads of this peptide / all reads for the bait, averaged over … |
| chain 1 QFTEEDRHFVLYGVTP [chain 1 L7R] | 7.05e-05 average fractional NGS count over selection days 2 and 3 (reads of this peptide / all reads for the bait, averaged over … |
| chain 1 QFTEEDLHFVLYGVTK [chain 1 P16K] | 9.04e-05 average fractional NGS count over selection days 2 and 3 (reads of this peptide / all reads for the bait, averaged over … |
| chain 1 QFTEEDLHFVLYGVTF [chain 1 P16F] | 0.000936 average fractional NGS count over selection days 2 and 3 (reads of this peptide / all reads for the bait, averaged over … |
| chain 1 QFTEEDLHFVLYGVTH [chain 1 P16H] | 0.000235 average fractional NGS count over selection days 2 and 3 (reads of this peptide / all reads for the bait, averaged over … |
| chain 1 QFTEEDLHFVLYGVTS [chain 1 P16S] | 0.145 average fractional NGS count over selection days 2 and 3 (reads of this peptide / all reads for the bait, averaged over … |
| chain 1 QFTEEDLHFVLYGVTL [chain 1 P16L] | 0.00707 average fractional NGS count over selection days 2 and 3 (reads of this peptide / all reads for the bait, averaged over … |
| chain 1 QFTEEDLHFVLYGVTY [chain 1 P16Y] | 0.000111 average fractional NGS count over selection days 2 and 3 (reads of this peptide / all reads for the bait, averaged over … |
| chain 1 QFTEEDLHFVLYGVTD [chain 1 P16D] | 0.004 average fractional NGS count over selection days 2 and 3 (reads of this peptide / all reads for the bait, averaged over … |
| chain 1 QFTEEDLHFVLYGVTE [chain 1 P16E] | 9.32e-05 average fractional NGS count over selection days 2 and 3 (reads of this peptide / all reads for the bait, averaged over … |
| chain 1 QFTEEDLHFVLYGVTR [chain 1 P16R] | 6.57e-05 average fractional NGS count over selection days 2 and 3 (reads of this peptide / all reads for the bait, averaged over … |
| chain 1 QFTEEDLHFVLYGVTV [chain 1 P16V] | 0.000126 average fractional NGS count over selection days 2 and 3 (reads of this peptide / all reads for the bait, averaged over … |
